Measurements taken from patent publication US20190119358A1.
*1 amine or outer side, *2 acyl side, *3 side chain or, on linkers, in order; H or OH if unused. Bridges are numbered along the chain shown (N, C = ends). Where no end group is shown, it is not given here. [ ]: non-standard residue; d: D form. UBX = ((2S,3R)-3-amino-2-hydroxy-4-phenylbutanoyl)-L-leucine, CC(C)C[C@H](NC(=O)[C@@H](O)[C@@H](Cc1ccccc1)N[*:1])C(=O)[*:2]; TDSPA = (R)-2-amino-3-(tert-butyldisulfanyl)propanoic acid, CC(C)(C)SSC[C@H](N[*:1])C(=O)[*:2]; m‑xylylene = m-xylylene thioether bridge between Cys; Trp(7-aza) = N[C@@H](Cc1c[nH]c2ncccc12)C(=O)O; NMePhe(4-F) = CN[C@@H](Cc1ccc(F)cc1)C(=O)O; mXylylene = c1cc(C[*:1])cc(C[*:2])c1; NMeY = CN[C@@H](Cc1ccc(O)cc1)C(=O)O; Glutaryl = O=C(CCCC(=O)[*:2])[*:1]; PEG4 = NCCOCCOCCOCCOCCC(=O)O; Phg = N[C@H](C(=O)O)c1ccccc1; Tle = CC(C)(C)[C@H](N)C(=O)O; NMeS = CN[C@@H](CO)C(=O)O; NMeA = CN[C@@H](C)C(=O)O; Pra = C#CC[C@H](N)C(=O)O; Nva = CCC[C@H](N)C(=O)O; Ahp = NCCCCCCC(=O)O; Sar = CNCC(=O)O

B1: R4103 (peptide)
peptide: Glutaryl-[Nva]CY[Tle]KH[NMeA][Phg][Trp(7-aza)]Y[NMePhe(4-F)][Sar]C-NH2
modifications: linker 2-13 via mXylylene
SMILES: CCC[C@H](NC(=O)CCCC(=O)O)C(=O)N[C@H]1CSCc2cccc(c2)CSC[C@@H](C(N)=O)NC(=O)CN(C)C(=O)[C@H](Cc2ccc(F)cc2)N(C)C(=O)[C@H](Cc2ccc(O)cc2)NC(=O)[C@H](Cc2c[nH]c3ncccc23)NC(=O)[C@H](c2ccccc2)NC(=O)[C@H](C)N(C)C(=O)[C@H](Cc2c[nH]cn2)NC(=O)[C@H](CCCCN)NC(=O)[C@H](C(C)(C)C)NC(=O)[C@H](Cc2ccc(O)cc2)NC1=O
B2: R4106 (peptide)
peptide: [UBX][Ahp][Nva]CY[Tle]KH[NMeA][Phg][Trp(7-aza)]Y[NMePhe(4-F)][Sar]C-NH2
modifications: linker 4-15 via mXylylene; N-terminus assumed
SMILES: CCC[C@H](NC(=O)CCCCCCNC(=O)[C@H](CC(C)C)NC(=O)[C@@H](O)[C@H](N)Cc1ccccc1)C(=O)N[C@H]1CSCc2cccc(c2)CSC[C@@H](C(N)=O)NC(=O)CN(C)C(=O)[C@H](Cc2ccc(F)cc2)N(C)C(=O)[C@H](Cc2ccc(O)cc2)NC(=O)[C@H](Cc2c[nH]c3ncccc23)NC(=O)[C@H](c2ccccc2)NC(=O)[C@H](C)N(C)C(=O)[C@H](Cc2c[nH]cn2)NC(=O)[C@H](CCCCN)NC(=O)[C@H](C(C)(C)C)NC(=O)[C@H](Cc2ccc(O)cc2)NC1=O
B3: R4114 (peptide)
peptide: [Nva]CY[Tle]KH[NMeA][Phg][Trp(7-aza)]Y[NMePhe(4-F)][Sar]C[dS]KGCVIM
modifications: linker 2-13 via mXylylene
B4: R4101 (peptide)
peptide: Ac-[Nva]CY[Tle]KH[NMeA][Phg][Trp(7-aza)]Y[NMePhe(4-F)][NMeA]C-NH2
modifications: linker 2-13 via mXylylene
SMILES: CCC[C@H](NC(C)=O)C(=O)N[C@H]1CSCc2cccc(c2)CSC[C@@H](C(N)=O)NC(=O)[C@H](C)N(C)C(=O)[C@H](Cc2ccc(F)cc2)N(C)C(=O)[C@H](Cc2ccc(O)cc2)NC(=O)[C@H](Cc2c[nH]c3ncccc23)NC(=O)[C@H](c2ccccc2)NC(=O)[C@H](C)N(C)C(=O)[C@H](Cc2c[nH]cn2)NC(=O)[C@H](CCCCN)NC(=O)[C@H](C(C)(C)C)NC(=O)[C@H](Cc2ccc(O)cc2)NC1=O
B5: R4118 (peptide)
peptide: Ac-[Nva]CY[Tle]KH[NMeA][Phg][Trp(7-aza)]Y[NMePhe(4-F)][NMeS]C-NH2
modifications: linker 2-13 via mXylylene
SMILES: CCC[C@H](NC(C)=O)C(=O)N[C@H]1CSCc2cccc(c2)CSC[C@@H](C(N)=O)NC(=O)[C@H](CO)N(C)C(=O)[C@H](Cc2ccc(F)cc2)N(C)C(=O)[C@H](Cc2ccc(O)cc2)NC(=O)[C@H](Cc2c[nH]c3ncccc23)NC(=O)[C@H](c2ccccc2)NC(=O)[C@H](C)N(C)C(=O)[C@H](Cc2c[nH]cn2)NC(=O)[C@H](CCCCN)NC(=O)[C@H](C(C)(C)C)NC(=O)[C@H](Cc2ccc(O)cc2)NC1=O
B6: R4104 (peptide)
peptide: Ac-SCY[Tle]KH[NMeA][Phg][Trp(7-aza)]Y[NMePhe(4-F)][Sar]C-NH2
modifications: linker 2-13 via mXylylene
SMILES: CC(=O)N[C@@H](CO)C(=O)N[C@H]1CSCc2cccc(c2)CSC[C@@H](C(N)=O)NC(=O)CN(C)C(=O)[C@H](Cc2ccc(F)cc2)N(C)C(=O)[C@H](Cc2ccc(O)cc2)NC(=O)[C@H](Cc2c[nH]c3ncccc23)NC(=O)[C@H](c2ccccc2)NC(=O)[C@H](C)N(C)C(=O)[C@H](Cc2c[nH]cn2)NC(=O)[C@H](CCCCN)NC(=O)[C@H](C(C)(C)C)NC(=O)[C@H](Cc2ccc(O)cc2)NC1=O
B7: R4119 (peptide)
peptide: Ac-[Nva]CY[Tle]KH[NMeA][Phg][Trp(7-aza)]Y[NMePhe(4-F)][Sar]CGCGVGIM
modifications: linker 2-13 via mXylylene
B8: R4116 (peptide)
peptide: Ac-[Nva]CY[Tle]KH[NMeA][Phg][Trp(7-aza)]Y[NMePhe(4-F)][Sar]CGCMSCKCVLS-NH2
modifications: linker 2-13 via mXylylene; cysteine pairing not given here
B9: R4105 (peptide)
peptide: Ac-[Nva]CY[Tle]KH[NMeA][Phg][Trp(7-aza)]Y[NMePhe(4-F)][Sar]C[dS]KGCVIM
modifications: linker 2-13 via mXylylene
B10: R4112 (peptide)
peptide: Ac-CY[Tle]KH[NMeA][Phg][Trp(7-aza)]Y[NMePhe(4-F)][Sar]C-NH2
modifications: linker 1-12 via mXylylene
SMILES: CC(=O)N[C@H]1CSCc2cccc(c2)CSC[C@@H](C(N)=O)NC(=O)CN(C)C(=O)[C@H](Cc2ccc(F)cc2)N(C)C(=O)[C@H](Cc2ccc(O)cc2)NC(=O)[C@H](Cc2c[nH]c3ncccc23)NC(=O)[C@H](c2ccccc2)NC(=O)[C@H](C)N(C)C(=O)[C@H](Cc2c[nH]cn2)NC(=O)[C@H](CCCCN)NC(=O)[C@H](C(C)(C)C)NC(=O)[C@H](Cc2ccc(O)cc2)NC1=O
B11: R4102 (peptide)
peptide: Ac-[Nva]CY[Tle]KH[NMeA][Phg][Trp(7-aza)]Y[NMePhe(4-F)][Sar]C[dS][dA]GCVIM
modifications: linker 2-13 via mXylylene
B12: R4108 (peptide)
peptide: Ac-[Nva]CY[Tle]KH[NMeA][Phg][Trp(7-aza)]Y[NMePhe(4-F)][Sar]C
modifications: linker 2-13 via mXylylene
B13: R4111 (peptide)
peptide: Ac-[Nva]CY[Tle]KH[NMeA][Phg][Trp(7-aza)]Y[NMePhe(4-F)][Sar]C[dS][dA]K[TDSPA]VIM
modifications: linker 2-13 via mXylylene
B14: R4100 (peptide)
peptide: Ac-[Nva]C[Tle]YHT[Trp(7-aza)][Trp(7-aza)]E[Trp(7-aza)][Nva]HC-NH2
modifications: linker 2-13 via m‑xylylene
B15: R4117 (peptide)
peptide: Ac-[Nva]C[NMeY][Tle]KH[NMeA][Phg][Trp(7-aza)]Y[NMePhe(4-F)][Sar]C-NH2
modifications: linker 2-13 via mXylylene
SMILES: CCC[C@H](NC(C)=O)C(=O)N[C@H]1CSCc2cccc(c2)CSC[C@@H](C(N)=O)NC(=O)CN(C)C(=O)[C@H](Cc2ccc(F)cc2)N(C)C(=O)[C@H](Cc2ccc(O)cc2)NC(=O)[C@H](Cc2c[nH]c3ncccc23)NC(=O)[C@H](c2ccccc2)NC(=O)[C@H](C)N(C)C(=O)[C@H](Cc2c[nH]cn2)NC(=O)[C@H](CCCCN)NC(=O)[C@H](C(C)(C)C)NC(=O)[C@H](Cc2ccc(O)cc2)N(C)C1=O
B16: R4002 (peptide)
peptide: [Nva]CY[Tle]KH[NMeA][Phg][Trp(7-aza)]Y[NMePhe(4-F)][Sar]C-NH2
modifications: linker 2-13 via mXylylene; N-terminus assumed
SMILES: CCC[C@H](N)C(=O)N[C@H]1CSCc2cccc(c2)CSC[C@@H](C(N)=O)NC(=O)CN(C)C(=O)[C@H](Cc2ccc(F)cc2)N(C)C(=O)[C@H](Cc2ccc(O)cc2)NC(=O)[C@H](Cc2c[nH]c3ncccc23)NC(=O)[C@H](c2ccccc2)NC(=O)[C@H](C)N(C)C(=O)[C@H](Cc2c[nH]cn2)NC(=O)[C@H](CCCCN)NC(=O)[C@H](C(C)(C)C)NC(=O)[C@H](Cc2ccc(O)cc2)NC1=O
B17: R4113 (peptide)
peptide: [Nva]CY[Tle]KH[NMeA][Phg][Trp(7-aza)]Y[NMePhe(4-F)][Sar]C[dS]KG[TDSPA]VIM
modifications: linker 2-13 via mXylylene
B18: R4115 (peptide)
peptide: Ac-[Nva]CY[Tle]KH[NMeA][Phg]WY[NMePhe(4-F)][Sar]C-NH2
modifications: linker 2-13 via mXylylene
SMILES: CCC[C@H](NC(C)=O)C(=O)N[C@H]1CSCc2cccc(c2)CSC[C@@H](C(N)=O)NC(=O)CN(C)C(=O)[C@H](Cc2ccc(F)cc2)N(C)C(=O)[C@H](Cc2ccc(O)cc2)NC(=O)[C@H](Cc2c[nH]c3ccccc23)NC(=O)[C@H](c2ccccc2)NC(=O)[C@H](C)N(C)C(=O)[C@H](Cc2c[nH]cn2)NC(=O)[C@H](CCCCN)NC(=O)[C@H](C(C)(C)C)NC(=O)[C@H](Cc2ccc(O)cc2)NC1=O
B19: R4110 (peptide)
peptide: Ac-[Nva]CY[Tle]KH[NMeA][Phg][Trp(7-aza)]Y[NMePhe(4-F)][Sar]C[dS]KG[TDSPA]VVL
modifications: linker 2-13 via mXylylene
B20: R4107 (peptide)
peptide: Ac-[Nva]CY[Tle]KH[NMeA][Phg][Trp(7-aza)]Y[NMePhe(4-F)][Sar]C[PEG4][Pra]-NH2
modifications: linker 2-13 via mXylylene
SMILES: C#CC[C@H](NC(=O)CCOCCOCCOCCOCCNC(=O)[C@@H]1CSCc2cccc(c2)CSC[C@H](NC(=O)[C@H](CCC)NC(C)=O)C(=O)N[C@@H](Cc2ccc(O)cc2)C(=O)N[C@@H](C(C)(C)C)C(=O)N[C@@H](CCCCN)C(=O)N[C@@H](Cc2c[nH]cn2)C(=O)N(C)[C@@H](C)C(=O)N[C@@H](c2ccccc2)C(=O)N[C@@H](Cc2c[nH]c3ncccc23)C(=O)N[C@@H](Cc2ccc(O)cc2)C(=O)N(C)[C@@H](Cc2ccc(F)cc2)C(=O)N(C)CC(=O)N1)C(N)=O
B21: R4109 (peptide)
peptide: Ac-[Nva]CY[Tle]KH[NMeA][Phg][Trp(7-aza)]Y[NMePhe(4-F)][Sar]C[dS]KG[TDSPA]VIM
modifications: linker 2-13 via mXylylene

Biological target: GMPPNP-loaded H-Ras or GTP-loaded K-Ras
Experiment: FP competition, displacement of probe R4007 from Ras

IC50 [nM] | Binder
2 | B1
8.38 | B2
32.7 | B3
1.45 | B4
51.5 | B5
3.29 | B6
64.4 | B7
35.7 | B8
3.31 | B9
21.4 | B10
1.82 | B11
9.45 | B12
20.8 | B13
1.06 | B14
48.3 | B15
7.92 | B16
32.7 | B17
34.1 | B18
16.4 | B19
9.42 | B20
14.2 | B21
